Publication PMC11969024 (2025)

B1: peptide HD2 (from tick evasin EVA4) / CCL11 (biotinylated, synthetic) (parent complex)
chain 1: EEDDYTAYAPLTCYFT
chain 2: not shown

Variants of: B1

Variant | enrichment
chain 1 P10Q | -3.8 log2 (difference from the parental peptide)
chain 1 P10L | -9.08 log2 (difference from the parental peptide)
chain 1 D4L | -4.32 log2 (difference from the parental peptide)
chain 1 D4E | -0.216 log2 (difference from the parental peptide)
chain 1 D4F | -4.42 log2 (difference from the parental peptide)
chain 1 D4I | -4.32 log2 (difference from the parental peptide)
chain 1 D4A | -3.23 log2 (difference from the parental peptide)
chain 1 D4P | -3.25 log2 (difference from the parental peptide)
chain 1 D4Q | -3.06 log2 (difference from the parental peptide)
chain 1 D4N | -2.87 log2 (difference from the parental peptide)
chain 1 D4R | -6.08 log2 (difference from the parental peptide)
chain 1 A7T | -0.43 log2 (difference from the parental peptide)
chain 1 A7V | -0.751 log2 (difference from the parental peptide)
chain 1 A7P | 0.578 log2 (difference from the parental peptide)
chain 1 A7S | 0.886 log2 (difference from the parental peptide)
chain 1 A7G | -1.16 log2 (difference from the parental peptide)
chain 1 A7Y | -0.616 log2 (difference from the parental peptide)
chain 1 A7F | -1.71 log2 (difference from the parental peptide)
chain 1 A7R | 0.794 log2 (difference from the parental peptide)
chain 1 A7N | 1.29 log2 (difference from the parental peptide)
chain 1 Y8N | -5.38 log2 (difference from the parental peptide)
chain 1 Y8W | -1.91 log2 (difference from the parental peptide)
chain 1 Y8V | -8.13 log2 (difference from the parental peptide)
chain 1 T16Y | -0.239 log2 (difference from the parental peptide)
chain 1 T16R | -1.09 log2 (difference from the parental peptide)

Variant | enrichment
chain 1 T16F | -0.46 log2 (difference from the parental peptide)
chain 1 T16H | 0.297 log2 (difference from the parental peptide)
chain 1 T16W | -0.88 log2 (difference from the parental peptide)
chain 1 T16A | 1.44 log2 (difference from the parental peptide)
chain 1 D3W | -3.25 log2 (difference from the parental peptide)
chain 1 D3P | -3.5 log2 (difference from the parental peptide)
chain 1 D3L | -3.39 log2 (difference from the parental peptide)
chain 1 D3C | -10.5 log2 (difference from the parental peptide)
chain 1 D3S | -2.82 log2 (difference from the parental peptide)
chain 1 L11R | -0.735 log2 (difference from the parental peptide)
chain 1 L11S | -0.475 log2 (difference from the parental peptide)
chain 1 Y5S | -5.35 log2 (difference from the parental peptide)
chain 1 Y5A | -6.65 log2 (difference from the parental peptide)
chain 1 Y5D | -3.62 log2 (difference from the parental peptide)
chain 1 Y14E | -7.34 log2 (difference from the parental peptide)
chain 1 Y14T | -4.02 log2 (difference from the parental peptide)
chain 1 E2R | -4.24 log2 (difference from the parental peptide)
chain 1 E2W | -2.09 log2 (difference from the parental peptide)
chain 1 E2L | -1.7 log2 (difference from the parental peptide)
chain 1 F15S | 0.275 log2 (difference from the parental peptide)
chain 1 F15H | -0.581 log2 (difference from the parental peptide)
chain 1 F15V | 0.59 log2 (difference from the parental peptide)
chain 1 F15C | -4.03 log2 (difference from the parental peptide)
chain 1 F15W | -1.47 log2 (difference from the parental peptide)
chain 1 F15G | -2.42 log2 (difference from the parental peptide)

Variant | enrichment
chain 1 T12Q | -1.12 log2 (difference from the parental peptide)
chain 1 T12A | -2.95 log2 (difference from the parental peptide)
chain 1 T12F | -3.13 log2 (difference from the parental peptide)
chain 1 T12K | -5.35 log2 (difference from the parental peptide)
chain 1 T12P | -3.61 log2 (difference from the parental peptide)
chain 1 A9M | -3.46 log2 (difference from the parental peptide)
chain 1 A9Y | -4.85 log2 (difference from the parental peptide)
chain 1 A9L | -7.13 log2 (difference from the parental peptide)
chain 1 A9S | -1.28 log2 (difference from the parental peptide)
chain 1 A9K | -4.4 log2 (difference from the parental peptide)
chain 1 A9G | -4.51 log2 (difference from the parental peptide)
chain 1 E1F | -2.2 log2 (difference from the parental peptide)
chain 1 E1G | -0.291 log2 (difference from the parental peptide)
chain 1 E1S | -0.538 log2 (difference from the parental peptide)
chain 1 E1V | -1.08 log2 (difference from the parental peptide)
chain 1 E1R | -2.69 log2 (difference from the parental peptide)
chain 1 E1A | -0.354 log2 (difference from the parental peptide)
chain 1 C13Y | -6.32 log2 (difference from the parental peptide)
chain 1 C13H | -9.22 log2 (difference from the parental peptide)
chain 1 C13A | -8.03 log2 (difference from the parental peptide)
chain 1 T6D | 3.92 log2 (difference from the parental peptide)
chain 1 T6L | -2.13 log2 (difference from the parental peptide)
chain 1 T6M | -0.715 log2 (difference from the parental peptide)
chain 1 T6E | 3.27 log2 (difference from the parental peptide)
chain 1 T6I | -5.35 log2 (difference from the parental peptide)
